Legend:
Assay in all cases: cell microarray
[1] = molecular target: T1, TTYH2 (human, UniProt Q9BSA4)
T1 sequence (looked up): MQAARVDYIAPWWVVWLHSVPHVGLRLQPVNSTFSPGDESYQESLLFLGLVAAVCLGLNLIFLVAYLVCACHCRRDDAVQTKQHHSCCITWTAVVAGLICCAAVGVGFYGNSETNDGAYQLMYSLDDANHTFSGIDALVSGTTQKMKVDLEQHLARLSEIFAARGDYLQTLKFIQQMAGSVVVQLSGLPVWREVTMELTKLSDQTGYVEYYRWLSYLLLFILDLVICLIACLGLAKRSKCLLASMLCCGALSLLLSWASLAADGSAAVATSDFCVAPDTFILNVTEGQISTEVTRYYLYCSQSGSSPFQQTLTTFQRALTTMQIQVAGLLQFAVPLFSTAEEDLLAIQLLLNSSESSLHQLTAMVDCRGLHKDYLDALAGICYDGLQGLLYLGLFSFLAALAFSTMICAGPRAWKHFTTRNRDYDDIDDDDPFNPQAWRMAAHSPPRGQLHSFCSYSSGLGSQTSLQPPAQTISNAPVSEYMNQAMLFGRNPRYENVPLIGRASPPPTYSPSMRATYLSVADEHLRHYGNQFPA

[2] = molecular target: T2, SLC26A4 (human, UniProt O43511)
T2 sequence (looked up): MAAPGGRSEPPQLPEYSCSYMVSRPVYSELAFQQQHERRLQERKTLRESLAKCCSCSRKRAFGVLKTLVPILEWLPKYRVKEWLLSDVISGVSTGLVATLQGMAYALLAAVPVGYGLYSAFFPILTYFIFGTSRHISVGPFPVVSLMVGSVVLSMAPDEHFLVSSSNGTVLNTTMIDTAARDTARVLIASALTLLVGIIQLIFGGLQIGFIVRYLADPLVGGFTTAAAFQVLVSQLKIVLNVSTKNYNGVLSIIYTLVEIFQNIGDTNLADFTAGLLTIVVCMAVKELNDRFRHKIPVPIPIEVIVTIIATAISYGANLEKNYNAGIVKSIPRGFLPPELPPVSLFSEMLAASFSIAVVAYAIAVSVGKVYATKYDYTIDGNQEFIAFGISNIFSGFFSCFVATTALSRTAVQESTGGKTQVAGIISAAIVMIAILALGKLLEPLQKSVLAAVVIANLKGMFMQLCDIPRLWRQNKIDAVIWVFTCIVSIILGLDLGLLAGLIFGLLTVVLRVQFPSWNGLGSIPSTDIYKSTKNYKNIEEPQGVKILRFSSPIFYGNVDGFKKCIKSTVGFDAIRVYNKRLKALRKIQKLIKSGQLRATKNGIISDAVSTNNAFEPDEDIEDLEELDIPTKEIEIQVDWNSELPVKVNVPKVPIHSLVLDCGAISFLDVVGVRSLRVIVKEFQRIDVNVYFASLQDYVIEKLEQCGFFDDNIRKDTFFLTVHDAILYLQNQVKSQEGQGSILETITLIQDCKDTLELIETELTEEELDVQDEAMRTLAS

[3] = molecular target: T3, KCNAB2 (human, UniProt Q13303)
T3 sequence (looked up): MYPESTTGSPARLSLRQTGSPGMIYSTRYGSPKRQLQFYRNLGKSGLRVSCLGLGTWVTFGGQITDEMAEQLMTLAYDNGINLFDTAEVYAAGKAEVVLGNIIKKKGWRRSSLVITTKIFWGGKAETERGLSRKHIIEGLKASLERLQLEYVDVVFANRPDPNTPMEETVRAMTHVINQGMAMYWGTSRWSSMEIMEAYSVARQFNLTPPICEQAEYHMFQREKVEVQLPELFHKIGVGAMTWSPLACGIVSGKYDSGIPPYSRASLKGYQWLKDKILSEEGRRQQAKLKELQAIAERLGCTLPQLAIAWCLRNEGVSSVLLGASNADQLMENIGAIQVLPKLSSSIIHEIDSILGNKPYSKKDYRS

[4] = molecular target: T4, CD86 (cell microarray) (human, UniProt P42081 24-329)
T4 sequence (looked up): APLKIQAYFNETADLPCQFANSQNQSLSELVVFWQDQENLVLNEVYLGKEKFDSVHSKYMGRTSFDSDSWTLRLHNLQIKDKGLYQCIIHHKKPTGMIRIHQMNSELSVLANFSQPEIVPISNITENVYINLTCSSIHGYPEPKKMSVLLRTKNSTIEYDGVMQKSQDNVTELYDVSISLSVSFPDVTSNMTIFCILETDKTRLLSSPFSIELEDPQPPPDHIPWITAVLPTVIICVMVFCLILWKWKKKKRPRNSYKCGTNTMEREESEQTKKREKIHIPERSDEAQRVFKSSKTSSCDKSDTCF

[5] = molecular target: CXCL12 (human, UniProt P48061)
[6] = molecular target: T5, PRCD (human, UniProt Q00LT1)
T5 sequence (looked up): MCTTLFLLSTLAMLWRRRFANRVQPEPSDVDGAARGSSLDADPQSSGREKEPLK

[7] = molecular target: T6, SIGLEC15 (human, UniProt Q6ZMC9)
T6 sequence (looked up): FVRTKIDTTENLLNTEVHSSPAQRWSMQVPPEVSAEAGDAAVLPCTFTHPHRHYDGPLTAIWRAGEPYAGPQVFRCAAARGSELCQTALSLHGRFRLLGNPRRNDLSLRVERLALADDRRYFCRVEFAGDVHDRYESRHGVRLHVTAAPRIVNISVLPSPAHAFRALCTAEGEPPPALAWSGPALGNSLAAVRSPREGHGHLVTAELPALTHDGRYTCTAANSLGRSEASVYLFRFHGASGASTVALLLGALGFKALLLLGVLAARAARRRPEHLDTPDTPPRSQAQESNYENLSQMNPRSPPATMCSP

[8] = molecular target: EGFR (human, UniProt P00533)
[9] = molecular target: LGALS1 (human, UniProt P09382)
[10] = molecular target: FcγRIa (cell microarray) (human, UniProt P12314 16-374)

Measured: binding result

Sequence of CXCL12 (P48061 22-89 limits assumed): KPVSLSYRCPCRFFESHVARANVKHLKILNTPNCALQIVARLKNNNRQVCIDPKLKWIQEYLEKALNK
Sequence of FcγRIa (cell microarray) (P12314 16-374): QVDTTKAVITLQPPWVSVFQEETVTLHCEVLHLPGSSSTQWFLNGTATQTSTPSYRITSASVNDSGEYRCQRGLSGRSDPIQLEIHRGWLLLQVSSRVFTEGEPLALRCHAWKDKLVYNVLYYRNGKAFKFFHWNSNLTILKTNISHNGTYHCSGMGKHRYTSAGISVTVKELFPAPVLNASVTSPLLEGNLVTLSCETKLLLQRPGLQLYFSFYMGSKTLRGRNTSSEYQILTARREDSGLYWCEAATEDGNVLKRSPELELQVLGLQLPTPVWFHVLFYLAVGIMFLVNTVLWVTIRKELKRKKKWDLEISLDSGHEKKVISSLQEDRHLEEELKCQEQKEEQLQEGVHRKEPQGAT
Sequence of LGALS1 (P09382 2-135 limits assumed): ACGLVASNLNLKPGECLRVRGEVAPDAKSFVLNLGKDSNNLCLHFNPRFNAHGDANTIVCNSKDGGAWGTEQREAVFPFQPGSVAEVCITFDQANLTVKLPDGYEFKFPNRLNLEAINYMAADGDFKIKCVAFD

B1: Fc LALA-PG only construct with the ACE2 domain omitted (other)
chain: EPKSCDKTHTCPPCPAPEAAGGPSVFLFPPKPKDTLMISRTPEVTCVVVDVSHEDPEVKFNWYVDGVEVHNAKTKPREEQYNSTYRVVSVLTVLHQDWLNGKEYKCKVSNKALGAPIEKTISKAKGQPREPQVYTLPPSREEMTKNQVSLTCLVKGFYPSDIAVEWESNGQPENNYKTTPPVLDSDGSFFLYSKLTVDKSRWQQGNVFSCSVMHEALHNHYTQKSLSLSPGK
notes: also called control Fc (LALA-PG)
no binding: all assays above

Source: patent US20230293647A1 (AUTOLUS, published 2023)
